Results as given in publication PMC10506259, “A glycosylated Phr1 protein is induced by calcium stress and its expression is positively controlled by the calcium/calcineurin signaling transcription factor Crz1 in Candida albicans”.

B1: EMSA_PHR1_F/R (PHR1 promoter CDRE probe) (dsDNA)
DNA 1: CCTTTCTCATAGGAATTCATCGACGCCTCATTCATACTAATATAATAGGT
DNA 2: ACCTATTATATTAGTATGAATGAGGCGTCGATGAATTCCTATGAGAAAGG
B2: unlabelled EMSA_PHR1_F/R (specific competitor) (dsDNA)
DNA 1: B1 DNA 1
DNA 2: B1 DNA 2

Experiments:
6xHis-Crz1 (CaCrz1) [1] = target: T1, 6xHis-Crz1 (CaCrz1) (Candida albicans, UniProt Q5A4H5 1-731); experiment: EMSA; 1 ug protein; DIG Gel Shift Kit (Roche), per manufacturer; buffer, salt, pH and temperature not stated; conditions: protein: recombinant; tags: His6; label: DIG at 3' end; blunt
T1 sequence: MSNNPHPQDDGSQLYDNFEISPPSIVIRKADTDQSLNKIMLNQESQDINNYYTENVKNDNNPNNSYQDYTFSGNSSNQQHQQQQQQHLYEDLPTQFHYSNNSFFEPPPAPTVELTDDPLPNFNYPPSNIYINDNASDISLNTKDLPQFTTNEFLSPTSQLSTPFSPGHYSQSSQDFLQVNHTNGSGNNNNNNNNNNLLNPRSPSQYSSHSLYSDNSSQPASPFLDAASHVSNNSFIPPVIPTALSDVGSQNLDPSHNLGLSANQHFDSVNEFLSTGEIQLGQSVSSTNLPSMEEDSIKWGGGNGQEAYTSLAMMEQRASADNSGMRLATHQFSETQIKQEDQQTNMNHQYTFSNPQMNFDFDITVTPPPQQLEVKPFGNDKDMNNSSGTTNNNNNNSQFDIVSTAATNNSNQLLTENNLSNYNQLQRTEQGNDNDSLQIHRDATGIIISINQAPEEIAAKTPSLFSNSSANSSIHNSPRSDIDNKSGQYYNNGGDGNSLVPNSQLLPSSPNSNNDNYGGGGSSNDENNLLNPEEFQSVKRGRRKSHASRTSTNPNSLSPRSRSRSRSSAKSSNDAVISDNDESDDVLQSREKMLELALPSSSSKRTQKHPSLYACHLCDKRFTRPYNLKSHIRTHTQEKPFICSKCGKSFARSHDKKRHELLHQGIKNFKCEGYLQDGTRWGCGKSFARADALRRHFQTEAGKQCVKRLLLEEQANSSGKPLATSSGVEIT

6xHis-Crz1 (CaCrz1) [2] = target: T1, 6xHis-Crz1 (CaCrz1); experiment: competition; unlabelled probe abolished binding to DIG-labelled N1; 1 ug protein; DIG Gel Shift Kit (Roche), per manufacturer; buffer, salt, pH and temperature not stated; conditions: protein: recombinant; tags: His6; blunt

Row | Binder | binding result (6xHis-Crz1 (CaCrz1) [1]) | binding result (6xHis-Crz1 (CaCrz1) [2])
1 | B1 | binds | –
2 | B2 | – | binds
